The text below walks through data of the supplement of paper PMC11246515.

The nature of this data set: total protein half-life in vivo (active degradation + dilution); higher = more stable protein.
[1] abbreviates: E. coli NCM3722 delta-clpP delta-lon delta-hslV, growth: N-lim chemostat, doubling time 6 h.
The mark [2] stands for this setting: E. coli NCM3722 delta-clpP, growth: N-lim chemostat, doubling time 6 h.
The mark [3] stands for this setting: E. coli NCM3722 delta-hslV, growth: N-lim chemostat, doubling time 6 h.
The mark [4] stands for this setting: E. coli NCM3722 delta-lon, growth: N-lim chemostat, doubling time 6 h.
Where [5] appears, read: E. coli NCM3722 delta-smpB, growth: N-lim chemostat, doubling time 6 h.
Setting [6] is: wild type E. coli NCM3722, growth: C-lim chemostat, doubling time 3 h.
Setting [7] is: wild type E. coli NCM3722, growth: C-lim chemostat, doubling time 6 h.
[8] abbreviates: wild type E. coli NCM3722, growth: C-lim chemostat, doubling time 12 h.
Setting [9] is: wild type E. coli NCM3722, growth: N-lim chemostat, doubling time 6 h.
Where [10] appears, read: wild type E. coli NCM3722, growth: N-lim chemostat, doubling time 12 h.
Where [11] appears, read: wild type E. coli NCM3722, growth: P-lim chemostat, doubling time 6 h.
Setting [12] is: wild type E. coli NCM3722, growth: P-lim chemostat, doubling time 12 h.

± gives the standard deviation of the averaged measurements.

In the case of “MSQLPGLSRETRESIAMYHLRVPQTEEELERYYQFRWEMLRKPLHQPKGSERDAWDAMAHHQMVVDEQGNLVAVGRLYINADNEASIRFMAVHPDVQDKGLGTLMAMTLESVARQEGVKRVTCSAREDAVEFFAKLGFVNQGEITTPTTTPIRHFLMIKPVATLDDILHRGDWCAQLQQAWYEHIPLSEKMGVRIQQYTGQKFITTMPETGNQNPHHTLFAGSLFSLATLTGWGLIWLMLRERHLGGTIILADAHIRYSKPISGKPHAVADLGALSGDLDRLARGRKARVQMQVEIFGDETPGAVFEGTYIVLPAKPFGPYEEGGNEEE [P0ADQ2]”, the “total protein half-life in vivo” value under setting [1] is 5.56 ± 0.43 h; the “total protein half-life in vivo” value under setting [2] was 4.46 ± 0.32 h; the “total protein half-life in vivo” value under setting [3] stood at 5.1 ± 0.92 h; the “total protein half-life in vivo” value under setting [4] was 4.93 ± 0.26 h; the “total protein half-life in vivo” value under setting [5] was 4.38 ± 0.27 h; the “total protein half-life in vivo” value under setting [6] was determined as 2.8559 ± 0.0026 h. For the same sequence, the “total protein half-life in vivo” value by setting is: under setting [7], 5.57 ± 0.27 h; under setting [8], 9.83 ± 0.3 h; under setting [9], 4.71 ± 0.12 h; under setting [10], 8.84 ± 1.4 h; under setting [11], 5.88 ± 0.23 h; under setting [12], 11.8 ± 0.52 h.
Regarding “MSKVRLAIIGNGMVGHRFIEDLLDKSDAANFDITVFCEEPRIAYDRVHLSSYFSHHTAEELSLVREGFYEKHGIKVLVGERAITINRQEKVIHSSAGRTVFYDKLIMATGSYPWIPPIKGSDTQDCFVYRTIEDLNAIESCARRSKRGAVVGGGLLGLEAAGALKNLGIETHVIEFAPMLMAEQLDQMGGEQLRRKIESMGVRVHTSKNTLEIVQEGVEARKTMRFADGSELEVDFIVFSTGIRPRDKLATQCGLDVAPRGGIVINDSCQTSDPDIYAIGECASWNNRVFGLVAPGYKMAQVAVDHILGSENAFEGADLSAKLKLLGVDVGGIGDAHGRTPGARSYVYLDESKEIYKRLIVSEDNKTLLGAVLVGDTSDYGNLLQLVLNAIELPENPDSLILPAHSGSGKPSIGVDKLPDSAQICSCFDVTKGDLIAAINKGCHTVAALKAETKAGTGCGGCIPLVTQVLNAELAKQGIEVNNNLCEHFAYSRQELFHLIRVEGIKTFEELLAKHGKGYGCEVCKPTVGSLLASCWNEYILKPEHTPLQDSNDNFLANIQKDGTYSVIPRSPGGEITPEGLMAVGRIAREFNLYTKITGSQRLAMFGAQKDDLPEIWRQLIEAGFETGHAYAKALRMAKTCVGSTWCRYGVGDSVGLGVELENRYKGIRTPHKMKFGVSGCTRECSEAQGKDVGIIATEKGWNLYVCGNGGMKPRHADLLAADIDRETLIKYLDRFMMFYIRTADKLTRTAPWLENLEGGIDYLKAVIIDDKLGLNAHLEEEMARLREAVLCEWTETVNTPSAQTRFKHFINSDKRDPNVQMVPEREQHRPATPYERIPVTLVEDNA”, the “total protein half-life in vivo” value was found to be 6.11 h under setting [1], 5.71 h under setting [2] and 6.72 h under setting [10].
Turning to “MVPVVALVGRPNVGKSTLFNRLTRTRDALVADFPGLTRDRKYGRAEIEGREFICIDTGGIDGTEDGVETRMAEQSLLAIEEADVVLFMVDARAGLMPADEAIAKHLRSREKPTFLVANKTDGLDPDQAVVDFYSLGLGEIYPIAASHGRGVLSLLEHVLLPWMEDLAPQEEVDEDAEYWAQFEAEENGEEEEEDDFDPQSLPIKLAIVGRPNVGKSTLTNRILGEERVVVYDMPGTTRDSIYIPMERDGREYVLIDTAGVRKRGKITDAVEKFSVIKTLQAIEDANVVMLVIDAREGISDQDLSLLGFILNSGRSLVIVVNKWDGLSQEVKEQVKETLDFRLGFIDFARVHFISALHGSGVGNLFESVREAYDSSTRRVGTSMLTRIMTMAVEDHQPPLVRGRRVKLKYAHAGGYNPPIVVIHGNQVKDLPDSYKRYLMNYFRKSLDVMGSPIRIQFKEGENPYANKRNTLTPTQMRKRKRLMKHIKKNK [P0A6P5]”, the “total protein half-life in vivo” value under setting [1] turned out to be 5.18 ± 0.36 h; the “total protein half-life in vivo” value under setting [2] was determined as 5.53 ± 0.68 h; the “total protein half-life in vivo” value under setting [3] stood at 4.51 ± 0.067 h; the “total protein half-life in vivo” value under setting [4] stood at 4.88 ± 0.11 h; the “total protein half-life in vivo” value under setting [5] was determined as 4.59 ± 0.29 h; the “total protein half-life in vivo” value under setting [6] was determined as 3.2 ± 0.2 h. For the same sequence, the “total protein half-life in vivo” value runs as follows: under setting [7], 5.55 ± 0.11 h; under setting [8], 10.3 ± 0.65 h; under setting [9], 4.6 ± 0.16 h; under setting [10], 7.38 ± 0.25 h; under setting [11], 5.43 ± 0.67 h; under setting [12], 10.8 ± 0.39 h.
With “MTKPYVRLDKNDAAVLLVDHQAGLLSLVRDIEPDKFKNNVLALGDLAKYFNLPTILTTSFETGPNGPLVPELKAQFPDTPYIARPGNINAWDNEDFVKAVKATGKKQLIIAGVVTEVCVAFPALSAIEEGFDVFVVTDASGTFNEITRHSAWDRLSQAGAQLMTWFGVACELHRDWRNDIEGLATLFSNHIPDYRNLMTSYDTLTKQK”, the “total protein half-life in vivo” value is 6.75 ± 1.6 h under setting [1]; 5.73 ± 0.18 h under setting [2]; 5.4 ± 0.7 h under setting [3]; 5.666 ± 0.053 h under setting [4]; 4.69 ± 0.19 h under setting [5]; 3.0124 ± 0.0024 h under setting [6]. Besides, the “total protein half-life in vivo” value by setting is: under setting [8], 10.3 ± 1.9 h; under setting [9], 5.17 ± 0.61 h; under setting [10], 9.22 ± 0.33 h; under setting [11], 5.84 ± 0.94 h; under setting [12], 12.9 ± 1.1 h.
For the sequence “MANRMILNETAWFGRGAVGALTDEVKRRGYQKALIVTDKTLVQCGVVAKVTDKMDAAGLAWAIYDGVVPNPTITVVKEGLGVFQNSGADYLIAIGGGSPQDTCKAIGIISNNPEFADVRSLEGLSPTNKPSVPILAIPTTAGTAAEVTINYVITDEEKRRKFVCVDPHDIPQVAFIDADMMDGMPPALKAATGVDALTHAIEGYITRGAWALTDALHIKAIEIIAGALRGSVAGDKDAGEEMALGQYVAGMGFSNVGLGLVHGMAHPLGAFYNTPHGVANAILLPHVMRYNADFTGEKYRDIARVMGVKVEGMSLEEARNAAVEAVFALNRDVGIPPHLRDVGVRKEDIPALAQAALDDVCTGGNPREATLEDIVELYHTAW [P0A9S1]”, the “total protein half-life in vivo” value is, setting by setting: under setting [1], 4.47 ± 0.099 h; under setting [2], 3.35 ± 0.51 h; under setting [3], 3.392 ± 0.0085 h; under setting [4], 4.76 ± 0.29 h; under setting [5], 2.66 ± 0.051 h; under setting [6], 3.02 ± 0.11 h. Also, the “total protein half-life in vivo” value reads like this: under setting [7], 5.64 ± 0.23 h; under setting [8], 10.6 ± 0.27 h; under setting [9], 4.48 ± 1 h; under setting [10], 4.94 ± 0.27 h; under setting [11], 5.483 ± 0.014 h; under setting [12], 10.2 ± 0.13 h.
For “MNAIISPDYYYVLTVAGQSNAMAYGEGLPLPDREDAPHPRIKQLARFAHTHPGGPPCHFNDIIPLTHCPHDVQDMQGYHHPLATNHQTQYGTVGQALHIARKLLPFIPDNAGILIVPCCRGGSAFTAGSEGTYSERHGASHDACRWGTDTPLYQDLVSRTRAALAKNPQNKFLGACWMQGEFDLMTSDYASHPQHFNHMVEAFRRDLKQYHSQLNNITDAPWFCGDTTWYWKENFPHSYEAIYGNYQNNVLANIIFVDFQQQGERGLTNAPDEDPDDLSTGYYGSAYRSPENWTTALRSSHFSTAARRGIISDRFVEAILQFWRER”, the “total protein half-life in vivo” value by setting is: under setting [1], 5.07 ± 0.92 h; under setting [2], 3.59 ± 0.15 h; under setting [3], 3.413 ± 0.026 h; under setting [5], 3.46 ± 0.15 h; under setting [6], 3.16 h; under setting [8], 8.77 ± 0.83 h. Moreover, the “total protein half-life in vivo” value reads like this: under setting [9], 3.38 h; under setting [11], 5.15 ± 0.32 h; under setting [12], 13.2 h.
